Tests used:
[1] = molecular target: T1, human CD3 expressed on cells (Jurkat cells; human primary T cells) (human, UniProt P07766 23-207; P04234 22-171; P09693 23-182); test: flow cytometry, 25 nM, Jurkat cells
T1 construct: whole, on cells
In short: (§1)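 Flow cytometric binding was measured after cells were incubated with antibody (25 nM, PBS+2% FBS) at 4° C for 30 minutes. Signals were normalized to isotype to yield FOI, with ≥10 scored positive.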

[2] = molecular target: T1, human CD3 expressed on cells (Jurkat …); test: flow cytometry, 25 nM, human primary T cells
In short: as §1

[3] = molecular target: T2, cynomolgus monkey CD3 expressed on cyno primary T cells (cynomolgus monkey, UniProt Q95LI5 22-198; Q95LI8 22-171; Q95LI7 23-181); test: flow cytometry, cyno primary T cells
T2 construct: whole, on cells; CD3 complex on purified cynomolgus monkey CD3 pan T cells; also called cyno CD3
T2 sequence (Q95LI5 22-198, chain 1 of 3): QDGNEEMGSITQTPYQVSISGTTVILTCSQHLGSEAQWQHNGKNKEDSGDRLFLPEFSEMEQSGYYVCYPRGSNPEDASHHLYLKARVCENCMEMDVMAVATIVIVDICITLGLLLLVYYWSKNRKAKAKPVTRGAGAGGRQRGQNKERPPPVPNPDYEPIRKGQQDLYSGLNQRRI
T2 sequence (Q95LI8 22-171, chain 2 of 3): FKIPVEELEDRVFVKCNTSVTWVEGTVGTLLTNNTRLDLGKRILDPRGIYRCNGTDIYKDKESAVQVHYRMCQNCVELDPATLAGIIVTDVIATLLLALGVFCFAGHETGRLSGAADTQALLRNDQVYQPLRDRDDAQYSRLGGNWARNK
T2 sequence (Q95LI7 23-181, chain 3 of 3): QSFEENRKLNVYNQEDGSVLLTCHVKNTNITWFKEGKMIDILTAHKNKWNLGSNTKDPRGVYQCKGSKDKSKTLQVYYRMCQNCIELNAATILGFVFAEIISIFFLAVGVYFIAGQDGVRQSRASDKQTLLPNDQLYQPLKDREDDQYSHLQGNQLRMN
In short: as §1

[4] = molecular target: human EGFR, C-terminal eGFP-tagged, on CHO-K1 cells (human, UniProt P00533 25-1210); test: cell-based or functional assay

T1 sequence (P07766 23-207, chain 1 of 3): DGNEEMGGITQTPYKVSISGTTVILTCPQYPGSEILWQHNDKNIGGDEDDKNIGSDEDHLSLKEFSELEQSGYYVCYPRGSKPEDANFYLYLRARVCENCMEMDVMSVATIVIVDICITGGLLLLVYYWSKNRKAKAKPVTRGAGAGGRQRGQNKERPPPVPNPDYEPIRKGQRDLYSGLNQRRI
T1 sequence (P04234 22-171, chain 2 of 3): as the sequence (Q95LI8 22-171, chain 2 of 3) above, with V5I, K15N, V20I, T32S, N33D, N34I, A64T, N74S, L83V, R141H counted along it
T1 sequence (P09693 23-182, chain 3 of 3): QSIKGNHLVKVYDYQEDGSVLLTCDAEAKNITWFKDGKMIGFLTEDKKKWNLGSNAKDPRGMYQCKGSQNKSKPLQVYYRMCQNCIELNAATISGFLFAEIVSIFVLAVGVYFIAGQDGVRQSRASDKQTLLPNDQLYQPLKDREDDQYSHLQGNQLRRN

Binder	Binding (FOI) [1]	Binding (FOI) [2]	binding result [3]	EC50 CHO-K1 EGFR Low (nM); T cell activation bioassay, luciferase [4]	EC50 CHO-K1 EGFR Med (nM); T cell activation bioassay, luciferase [4]
mAb 276 (antibody, V domains shown, VH/VL only) VH: EVQLVESGGGLVQPGGSLRLSCAASGIPFSTYSMNWVRQAPGKGLEWVSYISGSSRTIYYADSVKGRFTISRDNAKKLLFLQMNSLRDEDTAVYYCAREGDYYDSSGWAYWGQGTLVTVSS VL: DIQMTQSPSSLSASVGDRVTITCRASQNIYKYLNWYEQKPGRAPKLLIYTTSNLQSGVPSRFSGSGSGTAFTLIISSLQPEDFATYYCQQSYGSPYTFGQGTKLEIK	156 FOI	149 FOI	no binding (tested: FOI <10 (FOI >=10 = positive); 25 nM)	–	–
mAb 283 (antibody, V domains shown, VH/VL only) VH: QVHLVQSGAEVKKPGASVRVSCKASGYTFTGYYIHWLRQAPGQGLEWLGWINPNSGGTNYSQKFRGRVTMTRDTSISTAYMELSRLRSDDTAVYYCARDKVWEQQLVGGFDYWGQGTLVTVSS VL: not shown	216 FOI	128 FOI	no binding (tested: FOI <10 (FOI >=10 = positive); 25 nM)	–	–
mAb 284 (antibody, V domains shown, VH/VL only) VH: EVQLLESGGGLVQPGGSLRLSCAASGFTFSSYAMSWVRQAPGKGLEWVSAISGSSGRTYYTDSVKGRFTISRDNSKNTLSLQMNSLRAEDTAVYYCAKKYSYYYYYMDVWGKGTTVTVSS VL: SYELTQPLSVSVALGQTAKITCGGNNIGSKNVHWYQQKPGQAPVLVIYRDSNRPSGIPERFSGSNSGNTATLTISRAQAGDEADYYCQVWDSSTAVFGGGTQLTAL	226 FOI	209 FOI	no binding (tested: FOI <10 (FOI >=10 = positive); 25 nM)	–	–
GOMP001_bsAb_011 (bispecific antibody, human IgG1, kappa, L234A L235A) heavy 1: QVQLVQSGAEVKKPGASVKVSCKASGYTFTSHWMHWVRKAPGQGLEWIGEFNPSNGRTNYNEEFKSKATMTVDTSTNTAYMELSSLRSEDTAVYYCASRDYDYDGRYFDYWGQGTLVTVSSASTKGPSVFPLAPSSKSTSGGTAALGCLVADYFPEPVTVSWNSGALTSGVHTFPAVLQSSGLYSLSSVVTVPSSSLGTQTYICNVNHKPSNTKVDEKVEPKSCDKTHTCPPCPAPEAAGGPSVFLFPPKPKDTLMISRTPEVTCVVVDVSHEDPEVKFNWYVDGVEVHNAKTKPREEQYNSTYRVVSVLTVLHQDWLNGKEYKCKVSNKALPAPIEKTISKAKGQPREPQVYTLPPSREEMTDNQVSLTCLVKGFYPSDIAVEWESNGQPENNYKTTPPVLMSDGSFFLASKLTVDKSRWQQGNVFSCSVMHEALHNHYTQKSLSLSPG light 1: RIQMTQSPSSLSASVGDRVTITCSASSSVTYMYWYQDKPGKAPKLLIYDTSNLASGVPSRFSGSGSGTDYTFTISSLQPEDIATYYCQQWSSHIFTFGQGTKVEIKRTVAAPSVFIFPPSDKQLKSGTARVVCLLNNFYPREAKVQWKVDNALQSGNSQESVTEQDSKDSTYSLSSTLTLSKADYEKHKVYACEVTHQGLSSPVTKSFNRGEC heavy 2: EVQLVESGGGLVQPGGSLRLSCAASGFTLSSYTMNWVRYAPGKGLEWVSYISSSSRTIYYSDRVKGRFSISRDNAKNSLYLQMNSLRDEDTALYYCAREDYYDSSGFDNWGRGTLVTVSSASTKGPSVFPLAPSSKSTSGGTAALGCLVKDYFPEPVTVSWNSGALTSGVHTFPAVLQSSGLYSLSSVVTVPSSSLGTQTYICNVNHKPSNTKVDKKVEPKSCDKTHTCPPCPAPEAAGGPSVFLFPPKPKDTLMISRTPEVTCVVVDVSHEDPEVKFNWYVDGVEVHNAKTKPREEQYNSTYRVVSVLTVLHQDWLNGKEYKCKVSNKALPAPIEKTISKAKGQPRRPRVYTLPPSREEMTKNQVSLVCLVKGFYPSDIAVEWESNGQPENNYKTTPPVLDSDGSFFLYSVLTVDKSRWQQGNVFSCSVMHEALHNHYTQKSLSLSPG light 2: DIRMTQSPSSFSASTGDRVTITCRASQGISSYLAWYQRKPGDAPKLLIYTASTLQSGVPSRFSGSGSGTDFTLTIRSLQSEDFATYYCQQYYSYPRTFGQGTKVEIKRTVAAPSVFIFPPSDEQLKSGTASVVCLLNNFYPREAKVQWKVDNALQSGNSQESVTEQDSKDSTYSLSSTLTLSKADYEKHKVYACEVTHQGLSSPVTKSFNRGEC	–	–	–	0.106 nM	0.0263 nM
GOMP001_bsAb_012 (bispecific antibody, human IgG1, kappa, L234A L235A) heavy 1: EVQLVESGGGLVQPGGSLRLSCAASGFTLSSYTMNWVRYAPGKGLEWVSYISSSSRTIYYSDRVKGRFSISRDNAKNSLYLQMNSLRDEDTALYYCAREDYYDSSGFDNWGRGTLVTVSSASTKGPSVFPLAPSSKSTSGGTAALGCLVKDYFPEPVTVSWNSGALTSGVHTFPAVLQSSGLYSLSSVVTVPSSSLGTQTYICNVNHKPSNTKVDKKVEPKSCDKTHTCPPCPAPEAAGGPSVFLFPPKPKDTLMISRTPEVTCVVVDVSHEDPEVKFNWYVDGVEVHNAKTKPREEQYNSTYRVVSVLTVLHQDWLNGKEYKCKVSNKALPAPIEKTISKAKGQPRRPRVYTLPPSREEMTKNQVSLVCLVKGFYPSDIAVEWESNGQPENNYKTTPPVLDSDGSFFLYSVLTVDKSRWQQGNVFSCSVMHEALHNHYTQKSLSLSPG light 1: DIRMTQSPSSFSASTGDRVTITCRASQGISSYLAWYQRKPGDAPKLLIYTASTLQSGVPSRFSGSGSGTDFTLTIRSLQSEDFATYYCQQYYSYPRTFGQGTKVEIKRTVAAPSVFIFPPSDEQLKSGTASVVCLLNNFYPREAKVQWKVDNALQSGNSQESVTEQDSKDSTYSLSSTLTLSKADYEKHKVYACEVTHQGLSSPVTKSFNRGEC heavy 2: QVQLVQSGAEVKKPGASVKVSCKASGYTFTSHWMHWVRYAPGQGLEWIGEFNPSNGRTNYNEKFKSKATMTVDTSTNTAYMELSSLRSEDTAVYYCASRDYDYDGRYFDYWGRGTLVTVSSASTKGPSVFPLAPSSKSTSGGTAALGCLVKDYFPEPVTVSWNSGALTSGVHTFPAVLQSSGLYSLSSVVTVPSSSLGTQTYICNVNHKPSNTKVDKKVEPKSCDKTHTCPPCPAPEAAGGPSVFLFPPKPKDTLMISRTPEVTCVVVDVSHEDPEVKFNWYVDGVEVHNAKTKPREEQYNSTYRVVSVLTVLHQDWLNGKEYKCKVSNKALPAPIEKTISKAKGQPRRPRVYTLPPSREEMTKNQVSLVCLVKGFYPSDIAVEWESNGQPENNYKTTPPVLDSDGSFFLYSVLTVDKSRWQQGNVFSCSVMHEALHNHYTQKSLSLSPG light 2: DIQMTQSPSSLSASVGDRVTITCSASSSVTYMYWYQRKPGDAPKLLIYDTSNLASGVPSRFSGSGSGTDYTFTISSLQPEDIATYYCQQWSSHIFTFGQGTKVEIKRTVAAPSVFIFPPSDEQLKSGTASVVCLLNNFYPREAKVQWKVDNALQSGNSQESVTEQDSKDSTYSLSSTLTLSKADYEKHKVYACEVTHQGLSSPVTKSFNRGEC	–	–	–	0.147 nM	0.0234 nM
